Measurements published in PMC6770517, “Insight into the Antifungal Mechanism of Action of Human RNase N-terminus Derived Peptides” (International Journal of Molecular Sciences, 2019).

Tests used:
[1] = β-D-Glucan binding assay (supernatant SDS-PAGE); design: species or system yeast; conditions: β-D-Glucan 0.4 mg/mL, 1 μM, PBS, 30 °C, up to 1 h; unbound fraction by SDS-PAGE
Method: (§1) C. albicans was cultured overnight in Sabouraud Dextrose broth at 30 °C, sub-cultured the next day and grown to an optical density of 0.4 at 592 nm (mid log-phase). Cells were washed twice in PBS and adjusted to 2 × 10^6 cells/mL. Cells and yeast β-D-Glucan (0.4 mg/mL) (Sigma) were respectively incubated in 100 μL of PBS at 30 °C with proteins and peptides at 1 μM final concentration during different periods of time up to 1 h. Following, the samples were centrifuged at 12,000× g. The supernatant samples were concentrated, and the presence of the proteins and peptides was checked by 15–18% SDS-PAGE and Coomassie Blue staining. Reference protein controls were treated following the same protocol in the absence of cells.

C. albicans cells [2] = assay: Minimal agglutination activity (MAC); type: cell-based, Candida albicans (ATCC 90028); conditions: protein tested up to 20 μM
Method: C. albicans cells were grown at 30 °C to an OD592 of 1.0, diluted 10 times, centrifuged at 5000× g for 2 min, and resuspended in 1× PBS. An aliquot of 100 μL of the cellular suspension was treated with increasing peptide concentrations (from 0.01 to 20 μM) and incubated at 30 °C for 1 h. The aggregation behavior was observed by visual inspection, and the agglutinating activity is expressed as the minimum agglutinating concentration of the sample tested, as previously described. Images were taken using a 50× stereoscope microscope.

C. albicans cells [3] = assay: Cell binding assay (supernatant SDS-PAGE); design: species or system Candida albicans (ATCC 90028); conditions: 1 μM, PBS, 30 °C, 15, 30 and 60 min; unbound fraction by SDS-PAGE
Method: as §1

B1: hRNase3: human ribonuclease 3 of the RNaseA superfamily, parental protein of RN3 (protein, UniProt P12724 28-160, looked up)
Eosinophil cationic protein: RPPQFTRAQWFAIQHISLNPPRCTIAMRAINNYRWRCKNQNTFLRTTFANVVNVCGNQSIRCPHNRTLNNCHRSRFRVPLLHCDLINPGAQNISNCTYADRPGRRFYVVACDNRDPRDSPRYPVVPVHLDTTI
[1]
  binding to main cell wall component (β-D-Glucan): positive binding
C. albicans cells [2]
  agglutination of C. albicans by the parental hRNase: able to agglutinate C. albicans
C. albicans cells [3]
  binding to C. albicans cell wall: able to bind to the C. albicans cell wall
